Data from publication PMC11452662, “Biofunctionalized dissolvable hydrogel microbeads enable efficient characterization of native protein complexes” (Nature Communications, 2024).
Where “and” joins values, the source holds several entries; their conditions need not be identical. Equal entries are not always repeated.

T1: Thermoplasma acidophilum 20S proteasome β subunit with Twin-Strep-tag (Thermoplasma acidophilum, UniProt P28061 9-211)
T1 construct: 20S proteasome β subunit of Thermoplasma acidophilum; not shown: Twin-Strep-tag, C-terminal, kept
T1 sequence (looked up): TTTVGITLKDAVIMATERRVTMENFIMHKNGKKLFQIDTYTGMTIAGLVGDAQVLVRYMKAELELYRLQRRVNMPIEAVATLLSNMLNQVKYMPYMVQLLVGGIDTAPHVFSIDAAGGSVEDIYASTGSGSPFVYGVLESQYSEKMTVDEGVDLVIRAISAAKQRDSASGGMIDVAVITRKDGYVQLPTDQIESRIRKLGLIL


How the values were obtained:
[1] = molecular target: Hp of the Hp(2)Ab(1) complex; assay: native MS; tandem MS with increasing collisional energy of the bait-target complex Hp(2)Hb(4)Ab(1), Hb as bait
[2] = molecular target: the molecule itself; assay: native MS; 20S purified with Strep-Tactin SNAP beads, α and β expressed from two separate plasmids; 150 mM ammonium acetate
[3] = molecular target: T1, Thermoplasma acidophilum 20S proteasome …; assay: native MS; 20S purified with Strep-Tactin SNAP beads, α and β coded in the same plasmid; 150 mM ammonium acetate; settings: partners not purified

| Molecule | stoichiometry N [1] | stoichiometry N [2] | stoichiometry N [3] |
| --- | --- | --- | --- |
| Hp of the Hp(2)Ab(1) complex | 2 |  |  |
| Thermoplasma acidophilum 20S proteasome α subunit, unmodified (natural protein, UniProt P25156 1-233, looked up, 20S proteasome α subunit of Thermoplasma acidophilum; The results call this α subunit unmodified; the methods say that the constructs were tagged at the C-termini with either a Twin-Strep-tag or a His tag) MQQGQMAYDRAITVFSPDGRLFQVEYAREAVKKGSTALGMKFANGVLLISDKKVRSRLIEQNSIEKIQLIDDYVAAVTSGLVADARVLVDFARISAQQEKVTYGSLVNIENLVKRVADQMQQYTQYGGVRPYGVSLIFAGIDQIGPRLFDCDPAGTINEYKATAIGSGKDAVVSFLEREYKENLPEKEAVTLGIKALKSSLEEGEELKAPEIASITVGNKYRIYDQEEVKKFL |  | 7 and 14 | 28 subunits in the complex of α and β |
